For one test, the target named is human glucagon receptor (human, UniProt P47871 26-477). Kind of test: cell-based or functional assay.
Another test addresses human GLP-1 receptor (human, UniProt P43220 24-463). Kind of test: cell-based or functional assay.

From US20230322887A1 (SHANGHAI MINWEI BIOTECHNOLOGY, published 2023) come the findings set out here.

Some results are limits rather than exact numbers.

Chain of human glucagon receptor (P47871 26-477): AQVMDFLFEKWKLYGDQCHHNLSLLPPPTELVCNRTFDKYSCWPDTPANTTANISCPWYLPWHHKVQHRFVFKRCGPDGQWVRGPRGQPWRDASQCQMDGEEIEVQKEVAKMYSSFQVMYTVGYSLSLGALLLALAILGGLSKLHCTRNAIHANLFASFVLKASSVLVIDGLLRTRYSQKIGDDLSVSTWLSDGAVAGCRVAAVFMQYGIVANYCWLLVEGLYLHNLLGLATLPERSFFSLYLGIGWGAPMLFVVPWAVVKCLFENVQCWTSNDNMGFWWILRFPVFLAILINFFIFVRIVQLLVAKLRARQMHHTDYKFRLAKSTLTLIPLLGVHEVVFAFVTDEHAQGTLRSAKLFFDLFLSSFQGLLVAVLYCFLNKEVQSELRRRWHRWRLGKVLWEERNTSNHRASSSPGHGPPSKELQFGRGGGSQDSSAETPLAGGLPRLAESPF

Turning to “GLP-1 (from UniProt P01275 92-128) (ligand)”, the EC50 human glucagon-R (CRE-luciferase reporter cells) with human glucagon receptor was > 1000 µM.

B1: GLP-1/glucagon dual agonist polypeptide expressed by clone 3D9 (peptide)
peptide: HSQGTFTSDYSKYLDEQAAKEFIAWLIAGGPSSGAPPPS
As to B1, the “% RLUGLP-1 (CRE-luciferase reporter, against the 100 ng/ml GLP-1 positive control)” value in the test with human GLP-1 receptor turned out to be 286%. Further, in the test with human glucagon receptor, the “% RLUGlucagon (CRE-luciferase reporter, against the 100 ng/ml glucagon positive control)” value (from here on “% RLUGlucagon”) is 197%.

B2: GLP-1/glucagon dual agonist polypeptide expressed by clone 12C6 (peptide)
peptide: HSQGTFTSDYSKYLDEQRAKEFVAWLIAGGPSSGAPPPS
B2: in the test with human GLP-1 receptor, the “% RLUGLP-1 (CRE-luciferase reporter, against the 100 ng/ml GLP-1 positive control)” value was 183%. Besides, in the test with human glucagon receptor, the “% RLUGlucagon” value was determined as 112%.

B3: GLP-1/glucagon dual agonist polypeptide expressed by clone 6B7 (peptide)
peptide: HSQGTFTSDYSKYLDEQRAKDFIAWLIAGGPSSGAPPPS
Consider B3, for which the “% RLUGLP-1 (CRE-luciferase reporter, against the 100 ng/ml GLP-1 positive control)” value in the test with human GLP-1 receptor was 123%. Besides, in the test with human glucagon receptor, the “% RLUGlucagon” value was 156%.
